Substitutions are numbered along the chain they refer to. *1 amine or outer side, *2 acyl side, *3 side chain or, on linkers, in order; H or OH if unused. Where no end group is shown, it is not given here. Side-chain parts run from the residue outwards. The star is where a group is joined. Succinyl(4-O-cholesteryl) = CC(C)CCC[C@@H](C)[C@H]1CC[C@H]2[C@@H]3CC=C4C[C@@H](OC(=O)CCC(=O)*)CC[C@]4(C)[C@H]3CC[C@]12C; Suc = O=C(CCC(=O)[*:2])[*:1]
B1: Compound 8 (peptide)
peptide: Ac-FAEFNQKINQVNEKIEESLEEIRKSDEELHNVNATT-NH2
B2: Positive polypeptide 3 (peptide)
peptide: IEEVNKKIEESLKKIEESDKKLEEVNKKKEAAAKK
modifications: not fully specified; also: modifications not known
B3: Positive polypeptide 1 (peptide)
peptide: SLEQVNKKIEQSLKFIEKSDKLLENGSGSGK
modifications: not fully specified; also: modifications not known
B4: Compound 14 (peptide)
peptide: Ac-DEFDKKIEEVNKKIEESLKKIEESDKKLEEVNEAAAKK([Suc-Succinyl(4-O-cholesteryl)])-NH2
B5: Positive polypeptide 4 (peptide)
peptide: IEQVNKKIEQSLKFIEKSDKLLENVNKGKCEAAAKK
modifications: not fully specified; also: modifications not known
B6: Positive polypeptide 5 (peptide)
peptide: B5 peptide with I1L
modifications: not fully specified; also: modifications not known
B7: Positive polypeptide 6 (peptide)
peptide: VFPSDEFDASISQVNEKINQSLAAIRKSDELLHNV
modifications: not fully specified; also: modifications not known
B8: Compound 9 (peptide)
peptide: Ac-WDEFDKKIEEVNKKIEESLKKIEESDKKLEEVNKKLEAAAKK(Succinyl(4-O-cholesteryl))-NH2
B9: Compound 50 (peptide)
peptide: Ac-SLEQVNEKINQSLAFIRKSDEINQSDEEVNKSDELLEAAAKK-NH2
B10: Compound 6 (peptide)
peptide: Ac-ADAFRLEVNDASSKINESIEESLLSLEKLHNVNATA-NH2
B11: Compound 15 (peptide)
peptide: Ac-DEFDKKKIEEVNKKIEESLKKIEESDKKLEEVGSGSGK([Suc-Succinyl(4-O-cholesteryl)])-NH2
B12: Compound 13 (peptide)
peptide: Ac-WDEFDKKIEEVNKKIEESLKKIEESDKKLEAAAKK([Suc-Succinyl(4-O-cholesteryl)])-NH2
B13: Compound 49 (peptide)
peptide: Ac-SLEQVNKKIEQSLESLKKSDKINQSLEEVNKSDELLEAAAKK-NH2
B14: Positive polypeptide 2 (peptide)
peptide: Ac-IEQVNKKIEQSLKFIEKSDKLLENVNKGK-NH2
B15: Compound 45 (peptide)
peptide: Ac-WDEFDASISQVNEKINQSLEEIRKSDELLHNEAAAKK(Succinyl(4-O-cholesteryl))-NH2
SMILES: CC[C@H](C)[C@H](NC(=O)[C@H](CO)NC(=O)[C@H](C)NC(=O)[C@H](CC(=O)O)NC(=O)[C@H](Cc1ccccc1)NC(=O)[C@H](CCC(=O)O)NC(=O)[C@H](CC(=O)O)NC(=O)[C@H](Cc1c[nH]c2ccccc12)NC(C)=O)C(=O)N[C@@H](CO)C(=O)N[C@@H](CCC(N)=O)C(=O)N[C@H](C(=O)N[C@@H](CC(N)=O)C(=O)N[C@@H](CCC(=O)O)C(=O)N[C@@H](CCCCN)C(=O)N[C@H](C(=O)N[C@@H](CC(N)=O)C(=O)N[C@@H](CCC(N)=O)C(=O)N[C@@H](CO)C(=O)N[C@@H](CC(C)C)C(=O)N[C@@H](CCC(=O)O)C(=O)N[C@@H](CCC(=O)O)C(=O)N[C@H](C(=O)N[C@@H](CCCNC(=N)N)C(=O)N[C@@H](CCCCN)C(=O)N[C@@H](CO)C(=O)N[C@@H](CC(=O)O)C(=O)N[C@@H](CCC(=O)O)C(=O)N[C@@H](CC(C)C)C(=O)N[C@@H](CC(C)C)C(=O)N[C@@H](Cc1c[nH]cn1)C(=O)N[C@@H](CC(N)=O)C(=O)N[C@@H](CCC(=O)O)C(=O)N[C@@H](C)C(=O)N[C@@H](C)C(=O)N[C@@H](C)C(=O)N[C@@H](CCCCN)C(=O)N[C@@H](CCCCNC(=O)CCC(=O)O[C@H]1CC[C@@]2(C)C(=CC[C@H]3[C@@H]4CC[C@H]([C@H](C)CCCC(C)C)[C@@]4(C)CC[C@@H]32)C1)C(N)=O)[C@@H](C)CC)[C@@H](C)CC)C(C)C
B16: Compound 51 (peptide)
peptide: Ac-SDELVNKKIEFDKKINQSLKKIEESDKKKLEAAAKK-NH2
B17: Compound 7 (peptide)
peptide: Ac-FDAFIQEINVNEDQSLEQSDELLLELHLLHSLLH-NH2
B18: Compound 44 (peptide)
peptide: Ac-WDEFDKKIEEVNKKIEESLKKIEESDKKLHNVEAAAKK(Succinyl(4-O-cholesteryl))-NH2
SMILES: CC[C@H](C)[C@H](NC(=O)[C@H](CCCCN)NC(=O)[C@H](CCCCN)NC(=O)[C@H](CC(C)C)NC(=O)[C@H](CO)NC(=O)[C@H](CCC(=O)O)NC(=O)[C@H](CCC(=O)O)NC(=O)[C@@H](NC(=O)[C@H](CCCCN)NC(=O)[C@H](CCCCN)NC(=O)[C@H](CC(N)=O)NC(=O)[C@@H](NC(=O)[C@H](CCC(=O)O)NC(=O)[C@H](CCC(=O)O)NC(=O)[C@@H](NC(=O)[C@H](CCCCN)NC(=O)[C@H](CCCCN)NC(=O)[C@H](CC(=O)O)NC(=O)[C@H](Cc1ccccc1)NC(=O)[C@H](CCC(=O)O)NC(=O)[C@H](CC(=O)O)NC(=O)[C@H](Cc1c[nH]c2ccccc12)NC(C)=O)[C@@H](C)CC)C(C)C)[C@@H](C)CC)C(=O)N[C@@H](CCC(=O)O)C(=O)N[C@@H](CCC(=O)O)C(=O)N[C@@H](CO)C(=O)N[C@@H](CC(=O)O)C(=O)N[C@@H](CCCCN)C(=O)N[C@@H](CCCCN)C(=O)N[C@@H](CC(C)C)C(=O)N[C@@H](Cc1c[nH]cn1)C(=O)N[C@@H](CC(N)=O)C(=O)N[C@H](C(=O)N[C@@H](CCC(=O)O)C(=O)N[C@@H](C)C(=O)N[C@@H](C)C(=O)N[C@@H](C)C(=O)N[C@@H](CCCCN)C(=O)N[C@@H](CCCCNC(=O)CCC(=O)O[C@H]1CC[C@@]2(C)C(=CC[C@H]3[C@@H]4CC[C@H]([C@H](C)CCCC(C)C)[C@@]4(C)CC[C@@H]32)C1)C(N)=O)C(C)C
B19: Compound 5 (peptide)
peptide: Ac-WDEFDKKIEEVNKKIEESLKKIEESDKKLEEVNKKL-NH2
B20: Compound 16 (peptide)
peptide: Ac-SDEFDKKIEEVNKKIEESLKKIEESDKKLEAAAKK([Suc-Succinyl(4-O-cholesteryl)])-NH2
B21: Compound 48 (peptide)
peptide: Ac-SLEQVNKINEKINKISQSLKKIEESDKKSDEVNAGLEAAAKK-NH2
B22: Compound 47 (peptide)
peptide: Ac-SLEQVNKINKKIDKIEESLKKIEESDKKSLEVNKKLEAAAKK-NH2
B23: Positive polypeptide 7 (peptide)
peptide: FDASISQVNEKINQSLAFIRKSDELLHNVNAGKSTTEAAAKK
modifications: not fully specified; also: modifications not known
B24: Compound 18 (peptide)
peptide: Ac-DEFDKKKIEEVNKKIEESLKKIEESDKKLEEVGSGSGK([Suc-Succinyl(4-O-cholesteryl)])-NH2

Target: F protein of RSV A long virus strain (Respiratory Syncytial Virus (RSV) A …, UniProt P12568 26-574)
Test: cell-based or functional assay

F protein of RSV A long virus strain, sequence (P12568 26-574): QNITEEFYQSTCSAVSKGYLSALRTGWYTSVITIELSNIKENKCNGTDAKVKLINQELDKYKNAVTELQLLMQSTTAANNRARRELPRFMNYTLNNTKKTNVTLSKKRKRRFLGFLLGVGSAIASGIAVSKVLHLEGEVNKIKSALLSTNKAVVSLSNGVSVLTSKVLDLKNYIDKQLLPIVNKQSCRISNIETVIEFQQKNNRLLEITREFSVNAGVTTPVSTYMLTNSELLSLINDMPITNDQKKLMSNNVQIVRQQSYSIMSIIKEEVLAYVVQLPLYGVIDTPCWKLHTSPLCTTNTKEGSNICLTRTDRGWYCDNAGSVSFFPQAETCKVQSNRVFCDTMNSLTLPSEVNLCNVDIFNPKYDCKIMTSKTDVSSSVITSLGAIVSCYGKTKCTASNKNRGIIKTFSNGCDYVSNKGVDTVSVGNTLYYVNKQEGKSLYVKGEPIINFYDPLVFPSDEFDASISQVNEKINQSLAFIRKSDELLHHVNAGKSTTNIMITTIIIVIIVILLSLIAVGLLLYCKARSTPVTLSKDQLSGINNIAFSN

B1 and B2 cannot be ordered by “IC50/nM, plaque reduction, RSV A long on HEp-2 cells (Table 2, Cell fusion inhibition activity)” value: 3770 nM for the first, over 300 nM for the second.

First: B3
Second: B4
The “IC50/nM, plaque reduction, RSV A long on HEp-2 cells (Table 2, Cell fusion inhibition activity)” value of the first is 15-fold higher: 150 nM for the first, 9.9 nM for the second.

Going from B5 to B6, the “IC50/nM, plaque reduction, RSV A long on HEp-2 cells (Table 2, Cell fusion inhibition activity)” value rises from 190 nM to over 300 nM.

First: B7
Second: B8
The “IC50/nM, plaque reduction, RSV A long on HEp-2 cells (Table 2, Cell fusion inhibition activity)” value of the first is higher: over 300 nM for the first, 95.7 nM for the second.

Compared with B9, B10 is higher in “IC50/nM, plaque reduction, RSV A long on HEp-2 cells (Table 2, Cell fusion inhibition activity)” value: 15.1 nM for the first, over 8000 nM for the second.

B11 and B12 are within 1.5-fold of each other in “IC50/nM, plaque reduction, RSV A long on HEp-2 cells (Table 2, Cell fusion inhibition activity)” value: 10.4 nM for the first, 13 nM for the second.

B13 and B14 cannot be ordered by “IC50/nM, plaque reduction, RSV A long on HEp-2 cells (Table 2, Cell fusion inhibition activity)” value: over 8000 nM for the first, over 300 nM for the second.

B15 and B16 are within 1.5-fold of each other in “IC50/nM, plaque reduction, RSV A long on HEp-2 cells (Table 2, Cell fusion inhibition activity)” value: 12.2 nM for the first, 9.9 nM for the second.

Compared with B17, B18 is lower in “IC50/nM, plaque reduction, RSV A long on HEp-2 cells (Table 2, Cell fusion inhibition activity)” value: over 8000 nM for the first, 12.4 nM for the second.

Going from B19 to B20, the “IC50/nM, plaque reduction, RSV A long on HEp-2 cells (Table 2, Cell fusion inhibition activity)” value falls from 1120 nM to 10.3 nM (110-fold).

B21 and B22 cannot be ordered by “IC50/nM, plaque reduction, RSV A long on HEp-2 cells (Table 2, Cell fusion inhibition activity)” value: over 8000 nM for the first, over 8000 nM for the second.

Going from B23 to B24, the “IC50/nM, plaque reduction, RSV A long on HEp-2 cells (Table 2, Cell fusion inhibition activity)” value falls from over 300 nM to 19.2 nM.

Target: F protein of hPIV Type 3 (hPIV3 C243) (human Parainfluenza Virus type 3 (hPIV3 …))
Test: cell-based or functional assay

B4 and B9 are within 1.5-fold of each other in “EC50 (nM), plaque reduction, hPIV3 C243 on LLC-MK2 cells” value (shortened to “EC50 (nM), plaque reduction, hPIV3 C243”): 31.4 nM for the first, 34.8 nM for the second.

First: B11
Second: B12
The “EC50 (nM), plaque reduction, hPIV3 C243” value of the first is 1.7-fold lower: 20.7 nM for the first, 35.6 nM for the second.

Going from B15 to B16, the “EC50 (nM), plaque reduction, hPIV3 C243” value falls from 36.3 nM to 18.8 nM (1.9-fold).

Going from B18 to B20, the “EC50 (nM), plaque reduction, hPIV3 C243” value rises from 27.9 nM to 59 nM (2.1-fold).

B24 was tested, and the “EC50 (nM), plaque reduction, hPIV3 C243” value was 50.5 nM.

Target: F protein of hMPV virus strain B1 (human metapneumovirus (hMPV) B1)
Test: cell-based or functional assay

B4 and B9 are within 1.5-fold of each other in “EC50 (nM), plaque reduction, hMPV B1 on Vero cells” value: 5.36 nM for the first, 5.95 nM for the second.

First: B12
Second: B15
The “EC50 (nM), plaque reduction, hMPV B1 on Vero cells” value of the first is 2.1-fold lower: 6.18 nM for the first, 13.1 nM for the second.

First: B16
Second: B18
The “EC50 (nM), plaque reduction, hMPV B1 on Vero cells” value of the first is 1.7-fold lower: 3.82 nM for the first, 6.6 nM for the second.

In the case of B20, the “EC50 (nM), plaque reduction, hMPV B1 on Vero cells” value is reported as 4.5 nM.

Target: F protein of hMPV virus strain A2 (human metapneumovirus (hMPV) A2)
Test: cell-based or functional assay

B4 and B9 are within 1.5-fold of each other in “EC50 (nM), plaque reduction, hMPV A2 on Vero cells” value: 18.9 nM for the first, 13.3 nM for the second.

Compared with B11, B12 is 1.5-fold lower in “EC50 (nM), plaque reduction, hMPV A2 on Vero cells” value: 17.9 nM for the first, 11.7 nM for the second.

First: B15
Second: B16
The “EC50 (nM), plaque reduction, hMPV A2 on Vero cells” value of the first is 11-fold higher: 200 nM for the first, 18.8 nM for the second.

Compared with B18, B20 is 2-fold lower in “EC50 (nM), plaque reduction, hMPV A2 on Vero cells” value: 14.6 nM for the first, 7.35 nM for the second.

In the case of B24, the “EC50 (nM), plaque reduction, hMPV A2 on Vero cells” value is reported as 35.9 nM.
